# Assay results taken from paper PMC3832671, “Two Homologous EF-G Proteins from Pseudomonas aeruginosa Exhibit Distinct Functions” (PLoS ONE, 2013).
# Legend:
# [1] = system: T1, Nc1nc2c(ncn2[C@@H]2O[C@H](COP(=O)(O)OP(=O)(O)OP(=O)(O)O)[C@@H](O)[C@H]2O)c(=O)[nH]1; assay: ribosome-dependent GTPase, colorimetric Pi release, Lineweaver-Burk; type: biochemical, Pseudomonas aeruginosa; settings: P. aeruginosa ribosomes 0.4 μM, EF-G1A 1.0 μM, 10 mM MgCl2, 70 mM NH4Cl, pH 7.5, kcat is kcat^obs
# T1 construct: full length (706 residues) with N-terminal 6xHis tag from pET-28b(+), NheI/HindIII; expressed in E. coli Rosetta 2(DE3); about 77 kDa
# Source text: ribosome-dependent GTPase, colorimetric Pi release, Lineweaver-Burk on EF-G1A
# [2] = system: T2, Nc1nc2c(ncn2[C@@H]2O[C@H](COP(=O)(O)OP(=O)(O)OP(=O)(O)O)[C@@H](O)[C@H]2O)c(=O)[nH]1; assay: as above; type: biochemical, Pseudomonas aeruginosa; settings: P. aeruginosa ribosomes 0.4 μM, EF-G1B 0.3 μM, 10 mM MgCl2, 70 mM NH4Cl, pH 7.5, 37 °C, kcat is kcat^obs, text b30 prints 71 μM
# T2 construct: full length (702 residues) with N-terminal 6xHis tag from pET-28b(+), NheI/HindIII; expressed in E. coli Rosetta 2(DE3); about 77 kDa
# Source text: ribosome-dependent GTPase, colorimetric Pi release, Lineweaver-Burk on EF-G1B
Substance,Km [1] [µM],kcat [1] [s⁻¹],kcat/Km [1] [M⁻¹ s⁻¹],Km [2] [µM],kcat [2] [s⁻¹],kcat/Km [2] [M⁻¹ s⁻¹]
EF-G1A (Pseudomonas aeruginosa PAO1),85,0.04,500,–,–,–
EF-G1B (Pseudomonas aeruginosa PAO1),–,–,–,70,0.2,3000
